Results as given in patent US20090011464A1 (published 2009).

Target: T1, human α4β7 integrin (human, UniProt P13612 34-1032; P26010 20-798)
T1 construct: whole, on cells; also called α4β7 integrin on HuT 78 cells; α4β7 on RPMI 8866 cells
Experiment: inhibition of adhesion of α4β7+ RPMI 8866 cells to plate-bound human MAdCAM-1-Ig chimera; antibody varied from 15.0 to 0.00075 µg/ml
Description: Wells were then washed once with wash buffer (50 mM Tris HCl, 0.14 M NaCl, 1 mM MnC12, pH 7.2) using a microplate autowasher (Bio-Tek Instruments, Winooski, Vt.) and blocked for 1.5 hrs at 37° C. with 100 μL of 10% FBS diluted in PBS.
BCECF (2′,7′-bis-(2-carboxyethyl)-5-(and 6)-carboxy fluorescein, acetoxymethyl ester; Molecular Probes, Inc., Eugene, Oreg.) was reconstituted to 50 μg/ml in DMSO and added to the cell suspension to a final dilution of 1:500. After incubating for 30 minutes at 37° C., cells were then washed in assay buffer (HBSS with 2% Fetal Bovine Serum, 25 mM HEPES, penicillin/streptomycin, pH 7.2), and 50,000 cells were added to each well of a V-bottom 96-well plate. […] The plate coated with MAdCAM-1 chimera was washed to remove blocking buffer, and these fluorescently labeled RPMI 8866 cells were then transferred to each well. The plate was placed on a platform shaker (New Brunswick Scientific Co., Inc., Edison, N.J.) at 40 RPM for 30 minutes at room temperature wrapped in aluminum foil. Unbound cells were removed by a single wash step and fluorescence subsequently measured (excite at 485 nm, read at 535 nm) with a Fluorescence Concentrator Analyzer (IDEXX Laboratories, Inc., Westbrook, Me.) before and after washing.

B1: murine Act-1 monoclonal antibody (antibody, mouse IgG1, V domains shown)
VH: QVQLQQPGAELVKPGTSVKLSCKGYGYTFTSYWMHWVKQRPGQGLEWIGEIDPSESNTNYNQKFKGKATLTVDISSSTAYMQLSSLTSEDSAVYYCARGGYDGWDYAIDYWGQGTSVTVSS
VL: DVVVTQTPLSLPVSFGDQVSISCRSSQSLAKSYGNTYLSWYLHKPGQSPQLLIYGISNRFSGVPDRFSGSGSGTDFTLKISTIKPEDLGMYYCLQGTHQPYTFGGGTKLEIK
notes: Mouse IgG1/kappa from the Act-1 hybridoma (ATCC PTA-3663); also called mAb Act-1; mouse Act-1 antibody
Which IC50 does the source give for B1 here?
The IC50 was 1.8 ng/mL.
